In the assay the target is EsxX glycine zipper peptide (EsxX 448-476), N-terminal biotin (Staphylococcus aureus (ST398)). Description: BLI; biotinylated peptide captured on streptavidin SAX biosensors (~1.0 nm); ExiABhis 50 uM to 1.6 uM in 2-fold dilutions in 10X Kinetics Buffer; association 180 s at 25 C; 1:1 kinetic model and steady-state model. On the technique in general: In BLI a coated tip is dipped into the sample, and binding shifts an interference pattern.

As usually defined, the Kd is the concentration at which binding is half-saturated. As usually defined, the stoichiometry N is the number of molecules, sites or subunits per partner or assembly. ExiA-ExiBhis dimer (complex) came in with a Kd of 22 µM and a stoichiometry N of 1.

The values above are taken from publication PMC12744356.
